The experiment addresses complement C5 (human) (UniProt P01031). Description: SPR. (In general: In SPR one partner is held on a chip, and binding of the other changes the refractive index at the surface.)

Data on one substance can be found in paper doi:10.1101/647354.

Chain of complement C5 (human) (P01031 19-673, chain 1 of 2): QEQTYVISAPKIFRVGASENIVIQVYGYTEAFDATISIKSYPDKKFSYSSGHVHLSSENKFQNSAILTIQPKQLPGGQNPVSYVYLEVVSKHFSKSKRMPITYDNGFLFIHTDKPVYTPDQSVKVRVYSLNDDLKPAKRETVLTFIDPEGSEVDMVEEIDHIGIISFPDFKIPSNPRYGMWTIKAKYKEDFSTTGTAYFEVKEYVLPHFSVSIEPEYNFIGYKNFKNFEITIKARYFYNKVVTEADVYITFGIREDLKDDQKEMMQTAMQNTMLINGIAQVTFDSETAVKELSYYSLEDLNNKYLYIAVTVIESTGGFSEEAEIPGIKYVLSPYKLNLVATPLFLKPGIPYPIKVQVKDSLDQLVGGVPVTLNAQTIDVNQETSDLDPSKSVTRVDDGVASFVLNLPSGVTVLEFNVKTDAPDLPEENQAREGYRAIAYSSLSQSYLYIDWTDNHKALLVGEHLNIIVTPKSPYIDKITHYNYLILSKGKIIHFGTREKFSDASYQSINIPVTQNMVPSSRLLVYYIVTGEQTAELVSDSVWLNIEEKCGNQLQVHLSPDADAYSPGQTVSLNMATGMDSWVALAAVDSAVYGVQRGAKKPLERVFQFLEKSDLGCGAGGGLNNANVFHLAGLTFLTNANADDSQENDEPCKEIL
Chain of complement C5 (human) (P01031 678-1676, chain 2 of 2): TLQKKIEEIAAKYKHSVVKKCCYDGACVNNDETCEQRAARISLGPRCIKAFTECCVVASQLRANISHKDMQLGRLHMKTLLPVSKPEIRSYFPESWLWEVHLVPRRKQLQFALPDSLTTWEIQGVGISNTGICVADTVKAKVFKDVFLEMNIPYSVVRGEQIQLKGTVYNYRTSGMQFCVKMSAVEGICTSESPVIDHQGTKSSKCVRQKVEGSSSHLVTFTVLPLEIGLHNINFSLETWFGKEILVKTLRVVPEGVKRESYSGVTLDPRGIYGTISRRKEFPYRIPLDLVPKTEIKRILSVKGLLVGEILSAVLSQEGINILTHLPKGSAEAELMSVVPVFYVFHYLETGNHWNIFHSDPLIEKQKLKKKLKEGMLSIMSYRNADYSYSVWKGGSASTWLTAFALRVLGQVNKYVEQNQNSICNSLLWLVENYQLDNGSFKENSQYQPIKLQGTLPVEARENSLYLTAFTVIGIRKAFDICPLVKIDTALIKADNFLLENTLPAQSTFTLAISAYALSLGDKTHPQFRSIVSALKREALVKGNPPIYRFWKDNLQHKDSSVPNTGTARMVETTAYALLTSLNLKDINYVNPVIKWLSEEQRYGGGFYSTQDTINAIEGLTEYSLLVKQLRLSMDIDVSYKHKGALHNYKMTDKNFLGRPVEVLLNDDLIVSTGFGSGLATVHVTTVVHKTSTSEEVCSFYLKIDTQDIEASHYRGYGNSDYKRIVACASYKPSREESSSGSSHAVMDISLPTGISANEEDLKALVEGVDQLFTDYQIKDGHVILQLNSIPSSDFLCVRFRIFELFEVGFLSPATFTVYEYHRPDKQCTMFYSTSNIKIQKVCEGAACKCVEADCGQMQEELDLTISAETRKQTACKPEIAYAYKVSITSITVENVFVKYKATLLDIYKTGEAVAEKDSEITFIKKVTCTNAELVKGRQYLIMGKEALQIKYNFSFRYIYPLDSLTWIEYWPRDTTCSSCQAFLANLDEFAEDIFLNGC

“CirpT1 (Complement Inhibitor from Rhipicephalus pulchellus of the Terminal Pathway 1) (natural protein)” gave a dissociation constant (Kd) of 10 nM.

Broadly, the Kd is the equilibrium constant for the complex coming apart. The low end stands for a tighter complex, the high end for a looser complex.
